Target: T1, PRE-MRNA PROCESSING PROTEIN 40b (AtPRP40b), recombinant (Arabidopsis thaliana, UniProt F4JCC1 1-992)
T1 construct: AtPRP40b, Arabidopsis thaliana U1 snRNP auxiliary protein; Made as MBP-6xHis-AtPRP40b from a pMal-derived plasmid; MBP cut off with TEV protease; Detected with anti-PRP40b; source: E. coli BL21-CodonPlus(DE3)-RIL, purified (Ni-NTA, TEV cleavage, second Ni-NTA, size exclusion chromatography); not shown: MBP, N-terminal, cleaved
T1 sequence (looked up): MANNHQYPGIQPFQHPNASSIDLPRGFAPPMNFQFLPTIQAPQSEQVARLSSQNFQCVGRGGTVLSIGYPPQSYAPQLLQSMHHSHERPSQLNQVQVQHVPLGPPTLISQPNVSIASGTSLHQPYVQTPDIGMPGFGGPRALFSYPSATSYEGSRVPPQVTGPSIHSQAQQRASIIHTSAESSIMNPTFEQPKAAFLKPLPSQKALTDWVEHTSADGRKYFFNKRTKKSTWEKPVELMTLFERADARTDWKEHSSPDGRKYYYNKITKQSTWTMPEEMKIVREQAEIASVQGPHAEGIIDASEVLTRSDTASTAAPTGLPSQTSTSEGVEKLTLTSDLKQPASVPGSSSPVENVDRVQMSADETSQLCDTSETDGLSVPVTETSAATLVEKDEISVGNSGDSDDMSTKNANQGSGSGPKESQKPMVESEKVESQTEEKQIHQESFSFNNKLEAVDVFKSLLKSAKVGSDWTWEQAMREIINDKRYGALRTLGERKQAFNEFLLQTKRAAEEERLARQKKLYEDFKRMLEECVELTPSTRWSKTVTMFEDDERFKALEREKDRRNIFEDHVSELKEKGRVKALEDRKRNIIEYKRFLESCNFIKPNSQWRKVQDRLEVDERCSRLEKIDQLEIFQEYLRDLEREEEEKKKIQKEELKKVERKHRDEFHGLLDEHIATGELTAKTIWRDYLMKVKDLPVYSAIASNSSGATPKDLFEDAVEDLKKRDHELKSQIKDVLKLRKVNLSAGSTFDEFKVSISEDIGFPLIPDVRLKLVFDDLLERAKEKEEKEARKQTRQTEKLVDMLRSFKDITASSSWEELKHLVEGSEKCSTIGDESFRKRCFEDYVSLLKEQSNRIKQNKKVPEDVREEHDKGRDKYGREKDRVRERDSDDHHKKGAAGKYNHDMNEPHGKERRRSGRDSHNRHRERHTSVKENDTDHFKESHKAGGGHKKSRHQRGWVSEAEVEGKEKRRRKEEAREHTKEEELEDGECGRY
Assay: pull-down; 2 µg biotinylated CTD peptide on streptavidin paramagnetic particles; 2 µg of SE variant and AtPRP40b together; 1.5 h at 4°C in PBS pH 8.3, 5% glycerol, 1 mM DTT, 0.1% NP-40; five washes, immunoblot
Conditions: both partners purified

- binding result: binds
B1: SERRATE (SE), full length, recombinant (natural protein, Arabidopsis thaliana, UniProt Q9ZVD0 1-720, looked up)
chain: MADVNLPPSDSVDNRLPEKSTSSSPPPPPPSSSLPQQEQEQDQQQLPLRRERDSRERRDERDIERPPPNRRERDRSPLPPPRRDYKRRPSLSPPPPYRDRRHSPPQRRSPPQKRYRRDDNGYDGRRGSPRGGYGPPDRRFGYDHGGGYDREMGGRPGYGDERPHGRFMGRYQDWEGGRGGYGDASNSGNPQRDGLMSYKQFIQELEDDILPSEAERRYQEYKSEYITTQKRAFFNTHKEEDWLKNKYHPTNLLSVIERRNDLAQKVAKDFLLDLQSGTLDLGPAVTALNKSGRTSEPNSEDEAAGVGKRKRHGMGGAKENELLSAAPKAPSFTSDPKRILTDVEQTQALVRKLDSEKKIEENVLQGSETEKSGREKLHSGSTGPVVIIRGLTSVKGLEGVELLDTLVTYLWRVHGLDYYGKVETNEAKGLRHVRAEGKVSDAKGDENESKFDSHWQERLKGQDPLEVMAAKEKIDAAATEALDPHVRKIRDEKYGWKYGCGAKGCTKLFHAAEFVYKHLKLKHTELVTELTTKVREELYFQNYMNDPNAPGGQPATQQSGPRDRPIRRKPSMENRLRDDRGGRRERDGRANGNDRNDRSEDQQRGDNDGGNPGEVGYDAFGGQGGVHVPPFLSDINPPPMLMPVPGAGPLGPFVPAPPEVAMQMFRDPSGPNPPFEGSGRGGPAPFLLSPAFRQDPRRLRSYQDLDAPEEEVTVIDYRSL
notes: SERRATE, Arabidopsis thaliana, core component of the plant microprocessor; full length (720 residues by the printed deletion Δ681-720); Made as MBP-6xHis-SE from a pMal-derived plasmid; MBP cut off with TEV protease; source: E. coli BL21-CodonPlus(DE3)-RIL, purified (Ni-NTA, TEV cleavage, second Ni-NTA, size exclusion chromatography); not shown: MBP, N-terminal, cleaved
